Among the targets are Avr15 TALE NTD SRC (synthetic, UniProt Q56830 SEQ:151-834, K230S,Q231R,W232C (KQW to SRC)); Avr15 TALE NTD SSR (synthetic, UniProt Q56830 SEQ:151-834, K230S,Q231S,W232R (KQW to SSR)); Avr15 TALE NTD KRSNG (synthetic, UniProt Q56830 SEQ:151-834, Q231R,W232S,S233N (KQWSG to KRSNG)); Avr15 TALE NTD PKD (synthetic, UniProt Q56830 SEQ:151-834, K230P,Q231K,W232D (KQW to PKD)); Avr15 TALE NTD PTR (synthetic, UniProt Q56830 SEQ:151-834, K230P,Q231T,W232R (KQW to PTR)).

B1: G-Avr15 site (dsDNA)
DNA 1: GATAAACCCCCTCCAA
DNA 2: TTGGAGGGGGTTTATC
For B1, the binding result with Avr15 TALE NTD SRC, with Avr15 TALE NTD SSR and with Avr15 TALE NTD KRSNG was “binds” each time.

B2: A-Avr15 site (dsDNA)
DNA 1: AATAAACCCCCTCCAA
DNA 2: TTGGAGGGGGTTTATT
As for B2, the binding result with Avr15 TALE NTD PKD and with Avr15 TALE NTD PTR was “binds” throughout.

The values are drawn from patent US20230304022, “CHIMERIC POLYPEPTIDES HAVING TARGETED BINDING SPECIFICITY” (The Scripps Research Institute, published 2023).
